# Reference: patent US10118947B2, “Modulation of structured polypeptide specificity” (BICYCLE THERAPEUTICS LIMITED, priority 2013, dated 2018)
# Like-named read-outs stand apart in the source and are kept apart here. Numbered stars: 1 amine (or outer) side, 2 acyl side, 3 side chain; on linkers, the order of the positions; unused ones are H or OH. Bridge positions count the residues as written; N and C are the ends. Square brackets hold non-standard residues; d marks the D form. Peptide text beside a SMILES is read from it. Tpi = O=C(O)[C@@H]1Cc2c([nH]c3ccccc23)CN1; TBMB = c1c(C[*:1])cc(C[*:3])cc1C[*:2]; Tic = O=C(O)[C@@H]1Cc2ccccc2CN1; Pip = O=C(O)[C@@H]1CCCCN1; Dpg = CCCC(N)(CCC)C(=O)O; Aze = O=C(O)[C@@H]1CCN1; βAla = NCCC(=O)O
# Assays:
# [1] = Plasma stability profiling Method #1 (MALDI-TOF, 35% plasma), rat plasma; format: in vitro ADME; conditions: method #1
# Protocol: A rapid plasma stability profiling assay was developed that employed mass spectrometric detection (MALDI-TOF, Voyager DE, Applied Biosystems) of the parent mass, until the time when the parent peptide mass was no longer observable. Specifically, 200 uM of peptide was incubated in the presence of 35% rat or human plasma (Sera labs, using citrate as anticoagulant) at 37 deg C., which was supplemented with 1×PBS (derived from a 10×PBS Stock, Sigma). At various time points (i.e. t=0, 3, 24 hrs, henceafter daily up to 10 days), 2 uL of sample was added to 18 uL of 30 mM ammonium bicarbonate in a 1:1 mixture of acetonitrile:H2O. Samples were frozen at −80 deg C. until the time of analysis. For mass spectrometric analysis that determines the approximate detection window of the peptide, the acetonitrile:H2O-diluted sample of a given time point was spotted directly (0.7 uL) onto the MALDI plate. Matrix (alpha-cyanocinnamic acid, Sigma, prepared as a saturated solution in 1:1 acetonitrile:water containing 0.1% trifluoroacetic acid) was layered over the sample (1 uL). At a similar laser intensity setting on the MALDI TOF, the time could then be determined until parent peptide was no longer detectable. It should be noted that this is a qualitative assay serves to detect relative changes in plasma stability.
# human plasma Kallikrein [2] = target: T1, human plasma Kallikrein (Homo sapiens, UniProt P03952); assay: Functional enzyme inhibition assay with fluorogenic substrate Z-PheArg-AMC, human plasma Kallikrein; format: biochemical
# T1 construct: purchased Stratech, UK
# Summary of the method: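 Rates of AMC release (excitation 360 nm, emission 460 nm) from 100 μM final Z-PheArg-AMC, 4% DMSO, were taken over the linear phase, typically 5 to 45 minutes. IC50 from four-parameter non-linear regression; Ki also derived.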
# human plasma Kallikrein [3] = target: T1, human plasma Kallikrein; assay: Phage selections against human plasma Kallikrein (abundance in selection output); format: binding; conditions: Table 17; relative abundance in the total selection outputs
# Protocol: Glycerol stocks of phage libraries were diluted to OD600=0.1 in 500 ml 2YT/chloramphenicol (30 μg/ml) cultures and phage were produced at 30° C. over night (15-16 hrs). Phage were purified and chemically modified as described in Heinis, et al., Nat Chem Biol 2009, 5 (7), 502-7 Biotinylated hPK (3 μg) (IHPKA, from human plasma, Innovative Research, Novi, Mich., USA) was incubated with 50 μl pre-washed magnetic streptavidin beads (Dynal, M-280 from Invitrogen, Paisley, UK) for 10 minutes at RT. Beads were washed 3 times prior to blocking with 0.5 ml washing buffer (10 mM Tris-Cl, pH 7.4, 150 mM NaCl, 10 mM MgCl2, 1 mM CaCl2) containing 1% BSA and 0.1% Tween 20 for 30 minutes at RT with rotation. […] Blocked beads were then mixed with the blocked chemically modified phage and incubated for 30 minutes on a rotating wheel at
# RT. Beads were washed 8 times with washing buffer containing 0.1% Tween 20 and twice with washing buffer before incubation with 100 μl of 50 mM glycine, pH 2.2 for 5 minutes. Eluted phage were transferred to 50 μl of 1 M Tris-Cl, pH 8 for neutralization, incubated with 30 ml TG1 cells at OD600=0.4 for 90 minutes at 37° C. and the cells were plated on large 2YT/chloramphenicol plates. One or two additional rounds of panning were performed using the same procedures. In the second round of selection, neutravidin-coated magnetic beads were used to prevent the enrichment of streptavidin-specific peptides. The neutravidin beads were prepared by reacting 0.8 mg neutravidin (Pierce, Rockford, Ill., USA) with 0.5 ml tosyl-activated magnetic beads (Dynal, M-280 from Invitrogen, Paisley, UK) according to the supplier's instructions.
# The WPAR (SEQ ID No. 19) motif identified from Example 1 was analysed in the context of the 06-34-03 peptide, in order to identify alternatives or improvements to the WPAR motif. A library was constructed where positions 1, 6, 7, 8, 9 &10 of 06-34-03 were fixed and positions 2, 3, 4 & 5 were randomised (see ‘Randomisation of peptide domains—Library construction’ in Methods above). Selections against human plasma Kallikrein were performed at a variety of stringencies (see Phage selections' in Methods above). All output sequences were identified and analysed for target binding (see ‘Randomisation of peptide domains—Assay of binding of individual clones’ in Methods above). Table 17 lists each unique sequence, its relative abundance in the selection output (frequency), and a rank number according to target binding strength.
# T1 sequence (P03952 20-638): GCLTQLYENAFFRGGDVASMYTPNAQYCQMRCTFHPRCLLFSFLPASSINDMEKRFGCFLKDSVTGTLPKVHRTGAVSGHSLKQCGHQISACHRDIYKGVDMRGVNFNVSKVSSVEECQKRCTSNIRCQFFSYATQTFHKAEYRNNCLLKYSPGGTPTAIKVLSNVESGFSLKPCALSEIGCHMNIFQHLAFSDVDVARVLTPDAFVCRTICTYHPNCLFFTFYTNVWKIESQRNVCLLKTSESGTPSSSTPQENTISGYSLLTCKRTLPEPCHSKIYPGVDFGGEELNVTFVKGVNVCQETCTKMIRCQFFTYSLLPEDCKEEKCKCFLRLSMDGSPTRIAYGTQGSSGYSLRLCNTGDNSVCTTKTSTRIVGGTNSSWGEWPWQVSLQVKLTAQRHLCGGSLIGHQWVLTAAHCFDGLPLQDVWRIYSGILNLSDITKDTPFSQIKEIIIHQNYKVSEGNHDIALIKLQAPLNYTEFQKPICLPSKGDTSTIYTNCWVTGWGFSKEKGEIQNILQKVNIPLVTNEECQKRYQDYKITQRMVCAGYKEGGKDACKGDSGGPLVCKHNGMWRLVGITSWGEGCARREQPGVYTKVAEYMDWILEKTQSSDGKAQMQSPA
Compound,FREQUENCY (human plasma Kallikrein [3]),also measured
CC(=O)N[C@H]1CSCc2cc3cc(c2)CSC[C@H](NC(=O)[C@H](CCCNC(=N)N)NC(=O)[C@H](C)NC(=O)[C@@H]2CCN2C(=O)[C@H](Cc2c[nH]c4ccccc24)NC(=O)[C@H](CO)NC1=O)C(=O)N[C@@H](CC(C)C)C(=O)N[C@@H](Cc1c[nH]cn1)C(=O)N[C@@H](CCC(N)=O)C(=O)N[C@@H](CC(=O)O)C(=O)N[C@@H](CC(C)C)C(=O)N[C@H](C(N)=O)CSC3 [Ac-(06-34-18) Aze3] (Ac-CSW[Aze]ARCLHQDLC-NH2; linker 1-7-13 via TBMB),,"Observable in rat plasma, for days ([1]; Table 13): 2 days; affinity surpassing that of wildtype by a factor (human plasma Kallikrein [2]): 3"
CCCC1(CCC)NC(=O)[C@@H](NC(C)=O)CSCc2cc3cc(c2)CSC[C@H](NC(=O)[C@H](CCCNC(=N)N)NC(=O)[C@H](C)NC(=O)[C@@H]2CCCN2C(=O)[C@H](Cc2c[nH]c4ccccc24)NC1=O)C(=O)N[C@@H](CC(C)C)C(=O)N[C@@H](Cc1c[nH]cn1)C(=O)N[C@@H](CCC(N)=O)C(=O)N[C@@H](CC(=O)O)C(=O)N[C@@H](CC(C)C)C(=O)N[C@H](C(N)=O)CSC3 [Ac-(06-34-18) Dpg1] (Ac-C[Dpg]WPARCLHQDLC-NH2; linker 1-7-13 via TBMB),,"Observable in rat plasma, for days ([1]; Table 14): 2 days; Ki (human plasma Kallikrein [2]; Table 14, read-out: Ki (nM) (human kallikrein)): 1.09 nM; Ki (human plasma Kallikrein [2]; read-out: Ki / affinity to human Kallikrein): 1.1 nM"
CC(=O)N[C@H]1CSCc2cc3cc(c2)CSC[C@H](NC(=O)[C@H](CCCNC(=N)N)NC(=O)[C@H](C)NC(=O)[C@@H]2CCCN2C(=O)[C@H](Cc2ccccc2)NC(=O)[C@H](CO)NC1=O)C(=O)N[C@@H](CC(C)C)C(=O)N[C@@H](Cc1c[nH]cn1)C(=O)N[C@@H](CCC(N)=O)C(=O)N[C@@H](CC(=O)O)C(=O)N[C@@H](CC(C)C)C(=O)N[C@H](C(N)=O)CSC3 [Ac-(06-34-18) FPAR] (Ac-CSFPARCLHQDLC-NH2; linker 1-7-13 via TBMB),,"Observable in rat plasma, for days ([1]; Table 21): 2 days; reduction in potency/affinity compared to wildtype (human plasma Kallikrein [2]): 40 fold"
CC(=O)N[C@H]1CSCc2cc3cc(c2)CSC[C@H](NC(=O)[C@H](CCCNC(=N)N)NC(=O)[C@H](C)NC(=O)[C@@H]2Cc4c([nH]c5ccccc45)CN2C(=O)[C@H](Cc2c[nH]c4ccccc24)NC(=O)[C@H](CO)NC1=O)C(=O)N[C@@H](CC(C)C)C(=O)N[C@@H](Cc1c[nH]cn1)C(=O)N[C@@H](CCC(N)=O)C(=O)N[C@@H](CC(=O)O)C(=O)N[C@@H](CC(C)C)C(=O)N[C@H](C(N)=O)CSC3 [Ac-(06-34-18) NorHar3] (Ac-CSW[Tpi]ARCLHQDLC-NH2; linker 1-7-13 via TBMB),,"Observable in rat plasma, for days ([1]; Table 13): 2 days"
CC(=O)N[C@H]1CSCc2cc3cc(c2)CSC[C@H](NC(=O)[C@H](CCCNC(=N)N)NC(=O)[C@H](C)NC(=O)[C@@H]2CCCCN2C(=O)[C@H](Cc2c[nH]c4ccccc24)NC(=O)[C@H](CO)NC1=O)C(=O)N[C@@H](CC(C)C)C(=O)N[C@@H](Cc1c[nH]cn1)C(=O)N[C@@H](CCC(N)=O)C(=O)N[C@@H](CC(=O)O)C(=O)N[C@@H](CC(C)C)C(=O)N[C@H](C(N)=O)CSC3 [Ac-(06-34-18) Pip3] (Ac-CSW[Pip]ARCLHQDLC-NH2; linker 1-7-13 via TBMB),,"Observable in rat plasma, for days ([1]; Table 13): 2 days"
CC(=O)N[C@H]1CSCc2cc3cc(c2)CSC[C@H](NC(=O)[C@H](CCCNC(=N)N)NC(=O)[C@H](C)NC(=O)[C@@H]2Cc4ccccc4CN2C(=O)[C@H](Cc2c[nH]c4ccccc24)NC(=O)[C@H](CO)NC1=O)C(=O)N[C@@H](CC(C)C)C(=O)N[C@@H](Cc1c[nH]cn1)C(=O)N[C@@H](CCC(N)=O)C(=O)N[C@@H](CC(=O)O)C(=O)N[C@@H](CC(C)C)C(=O)N[C@H](C(N)=O)CSC3 [Ac-(06-34-18) Tic3] (Ac-CSW[Tic]ARCLHQDLC-NH2; linker 1-7-13 via TBMB),,"Observable in rat plasma, for days ([1]; Table 13): 2 days"
CC(=O)N[C@H]1CSCc2cc3cc(c2)CSC[C@H](NC(=O)[C@H](CCCNC(=N)N)NC(=O)[C@H](CO)NC(=O)[C@@H]2CCCN2C(=O)[C@H](Cc2c[nH]c4ccccc24)NC(=O)[C@H](CO)NC1=O)C(=O)N[C@@H](CC(C)C)C(=O)N[C@@H](Cc1c[nH]cn1)C(=O)N[C@@H](CCC(N)=O)C(=O)N[C@@H](CC(=O)O)C(=O)N[C@@H](CC(C)C)C(=O)N[C@H](C(N)=O)CSC3 [Ac-(06-34-18) WPSR] (Ac-CSWPSRCLHQDLC-NH2; linker 1-7-13 via TBMB),,"Observable in rat plasma, for days ([1]; Table 21): 2 days"
CC(=O)N[C@H]1CSCc2cc3cc(c2)CSC[C@H](NC(=O)[C@H](CCCNC(=N)N)NC(=O)[C@H](Cc2ccc(O)cc2)NC(=O)[C@@H]2CCCN2C(=O)[C@H](Cc2c[nH]c4ccccc24)NC(=O)[C@H](CO)NC1=O)C(=O)N[C@@H](CC(C)C)C(=O)N[C@@H](Cc1c[nH]cn1)C(=O)N[C@@H](CCC(N)=O)C(=O)N[C@@H](CC(=O)O)C(=O)N[C@@H](CC(C)C)C(=O)N[C@H](C(N)=O)CSC3 [Ac-(06-34-18) WPYR] (Ac-CSWPYRCLHQDLC-NH2; linker 1-7-13 via TBMB),,"Observable in rat plasma, for days ([1]; Table 21): 2 days"
CC(=O)N[C@H]1CSCc2cc3cc(c2)CSC[C@H](NC(=O)[C@H](CCCNC(=N)N)NC(=O)CCNC(=O)[C@@H]2CCCN2C(=O)[C@H](Cc2c[nH]c4ccccc24)NC(=O)[C@H](CO)NC1=O)C(=O)N[C@@H](CC(C)C)C(=O)N[C@@H](Cc1c[nH]cn1)C(=O)N[C@@H](CCC(N)=O)C(=O)N[C@@H](CC(=O)O)C(=O)N[C@@H](CC(C)C)C(=O)N[C@H](C(N)=O)CSC3 [Ac-(06-34-18) β-Ala4] (Ac-CSWP[βAla]RCLHQDLC-NH2; linker 1-7-13 via TBMB),,"Observable in rat plasma, for days ([1]; Table 14): 10 days"
CRFPFKCTHQDLC,1,
CSFLYKCTHQDLC,2,
CSFMYKCTHQDLC,1,
CSFPFKCTHQDLC,4,
CSFPFWCTHQDLC,1,
CSFPIRCTHQDLC,1,
CSFPWRCTHQDLC,1,
CSFPYKCTHQDLC,1,
CSFPYRCTHQDLC,12,
CSFSYKCTHQDLC,1,
CSHPFRCTHQDLC,1,
CSHPYRCTHQDLC,2,
CSHRRWCTHQDLC,1,

Compound,FREQUENCY (human plasma Kallikrein [3]),also measured
CSIPFKCTHQDLC,1,
CSLFDHCTHQDLC,1,
CSLPFKCTHQDLC,1,
CSLPIRCTHQDLC,1,
CSMPYRCTHQDLC,2,
CSQVVGCTHQDLC,1,
CSWAARCTHQDLC,1,
CSWHARCTHQDLC,1,
CSWLARCTHQDLC,8,
CSWPARCTHQDLC,24,
CSWPFRCTHQDLC,7,
CSWPSRCTHQDLC,51,
CSWPYKCTHQDLC,1,
CSWPYRCTHQDLC,3,
CSWQARCTHQDLC,1,
CSWSARCTHQDLC,10,
CSWSYRCTHQDLC,1,
CSWWARCTHQDLC,1,
CSYPFRCTHQDLC,1,
CSYPIRCTHQDLC,2,
CSYPWRCTHQDLC,1,
CSYPYRCTHQDLC,2,
